Assay results reported in paper doi:10.1101/2024.03.27.586411 (2024).
Several values for one entry are separate records, joined by “and”; a condition that tells them apart may be missing. Equal entries are not always repeated.

T1: PDCoV_(IL121_2014) receptor-binding domain (Porcine deltacoronavirus (PDCoV), …)
T1 chain: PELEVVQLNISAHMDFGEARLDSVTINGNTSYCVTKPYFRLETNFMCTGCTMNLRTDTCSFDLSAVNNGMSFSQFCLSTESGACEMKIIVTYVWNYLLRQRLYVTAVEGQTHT

B1: PD33 Fab fragment (Fab, V domains shown)
VH: EVQLVESGGGLVQPGGSLRLSCAASGFTFSHYTMNWVRQAPGRGLEWVSSITTSSNFIYYADSVKGRFTISRDNTKNSLYLQMNSLSAEDTAVYFCARGGWELSYFDFWGQGTLVTVSS
VL: DIVMTQSPLSLPVTLGQPASISCRSSQSLVYSDGNTFLNWFQQRPGQSPRRLIYKVSNRDSGVPDRFSGSGSGTDFTLRISRVEAEDVGFYYCMQGTHWPPTFGPGTKVEIK
B2: PD41 Fab fragment (Fab, V domains shown)
VH: HSQLQESGPGLVKPSQTLSLTCTVSGGSISSAGYYWNWIRQHPGKGLEWIGYIYYSGNTYYNPSLKSRVTISVDTSKSQFSLKLNSVTAADTAVYYCARKIVNWFDPWGQGTLVTVSS
VL: QSALTQPASVSGSPGQSITISCTGTSSDVGGYNYVSWYQQHPGKAPKLMIYDVSERPSGVSNRFSGSKSGNTASLTISGLQAEDEADYFCCSYAGYTTYVVFGGGTQLTVL

Experiments:
[1] = molecular target: PDCoV S_(SD2018) ectodomain trimer (Porcine deltacoronavirus (PDCoV), isolate SD2018/300); test: cryo-EM structure; 1.5 uM PDCoV S SD2018/300 with 4.5 uM PD41 Fab, 1 hour at 4 C; 3D classification into four classes, local refinement of the RBD:PD41 region
[2] = molecular target: human APN ectodomain, Fc fusion (human) (UniProt P15144); test: BLI; RBD to hAPN-Fc, series from 5 uM two-fold down to 39 nM; apparent KD; Octet Red, 30 C, 10 x Kinetics Buffer; 1:1 binding model; who was immobilised is not told for this series
[3] = molecular target: T1, PDCoV_(IL121_2014) receptor-binding …; test: BLI
[4] = molecular target: T1, PDCoV_(IL121_2014) receptor-binding …; test: BLI

Sequence of human APN ectodomain, Fc fusion (human) (P15144 66-967): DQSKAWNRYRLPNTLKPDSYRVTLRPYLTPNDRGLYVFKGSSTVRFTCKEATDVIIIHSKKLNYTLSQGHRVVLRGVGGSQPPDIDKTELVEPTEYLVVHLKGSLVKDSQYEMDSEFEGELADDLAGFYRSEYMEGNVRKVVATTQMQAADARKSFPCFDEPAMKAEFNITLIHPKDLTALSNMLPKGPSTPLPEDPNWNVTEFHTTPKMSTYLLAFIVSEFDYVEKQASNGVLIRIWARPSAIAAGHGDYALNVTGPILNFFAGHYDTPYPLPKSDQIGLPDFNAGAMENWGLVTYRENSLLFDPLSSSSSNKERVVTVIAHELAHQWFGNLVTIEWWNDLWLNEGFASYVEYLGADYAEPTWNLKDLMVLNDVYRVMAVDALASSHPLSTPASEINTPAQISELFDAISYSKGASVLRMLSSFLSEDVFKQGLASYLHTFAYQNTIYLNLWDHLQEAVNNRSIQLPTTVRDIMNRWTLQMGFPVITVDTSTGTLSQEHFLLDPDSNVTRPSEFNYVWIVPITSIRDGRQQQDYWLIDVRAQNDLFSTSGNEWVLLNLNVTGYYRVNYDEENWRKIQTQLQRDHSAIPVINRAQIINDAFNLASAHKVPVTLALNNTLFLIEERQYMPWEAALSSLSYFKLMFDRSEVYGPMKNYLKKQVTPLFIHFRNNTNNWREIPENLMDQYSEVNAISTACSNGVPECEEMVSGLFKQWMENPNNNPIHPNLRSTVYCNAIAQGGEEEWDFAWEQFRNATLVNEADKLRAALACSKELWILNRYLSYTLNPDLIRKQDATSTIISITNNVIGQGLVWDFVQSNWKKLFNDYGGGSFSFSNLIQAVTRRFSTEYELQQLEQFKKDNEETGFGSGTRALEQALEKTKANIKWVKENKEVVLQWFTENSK

| Molecule | stoichiometry N [1] | fold greater affinity than RBD (IL121 2014) [2] | koff [3] | Kd [4] |
| --- | --- | --- | --- | --- |
| PDCoV S_(SD2018) ectodomain trimer (natural protein) | 3 | – | – | – |
| PDCoV SD2018/300 receptor-binding domain (domain or fragment) | – | 5 fold | – | – |
| B1 | – | – | 0.000586 s⁻¹ and 0.000542 s⁻¹ | 0.00436 µM |
| B2 | – | – | 0.00177 s⁻¹ and 0.002 s⁻¹ | 0.0226 µM and 0.0372 µM |
